Test results reported in the supplement of paper PMC9112550, “Optimization of the antimicrobial peptide Bac7 by deep mutational scanning” (BMC Biology, 2022).

Test system: Escherichia coli TOP10
Assay: shrunken log2 fold change of peptide-encoding DNA abundance (4.5 h post-induction vs induction); higher = less antimicrobial activity (less host growth inhibition)
Details: time post-induction: 4.5 h; library: site-saturation at positions 5, 18, 19, 20
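Further: peptides expressed intracellularly from a pBAD plasmid library in pooled LB shake-flask culture, induced with 0.3% L-arabinose, DNA abundance read by NGS, three biological replicates, DESeq2 with apeglm shrinkage.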

## RRIRWRPPRLPRPRPRPCLIPRP
  shrunken log2 fold change: -0.151

## RRIRWRPPRLPRPRPRPTYSPRP
  shrunken log2 fold change: -0.163

## RRIRIRPPRLPRPRPRPIHLPRP
  shrunken log2 fold change: -0.352

## RRIRNRPPRLPRPRPRPKDDPRP
  shrunken log2 fold change: 0.0456

## RRIRLRPPRLPRPRPRPKLAPRP
  shrunken log2 fold change: 0.098

## RRIRCRPPRLPRPRPRPKQRPRP
  shrunken log2 fold change: 0.222

## RRIRWRPPRLPRPRPRPAINPRP
  shrunken log2 fold change: 0.185

## RRIRIRPPRLPRPRPRPCCKPRP
  shrunken log2 fold change: -0.398

## RRIRLRPPRLPRPRPRPMAHPRP
  shrunken log2 fold change: -0.944

## RRIRPRPPRLPRPRPRPTQRPRP
  shrunken log2 fold change: 0.369

## RRIRGRPPRLPRPRPRPSADPRP
  shrunken log2 fold change: 1.91

## RRIRWRPPRLPRPRPRPYDCPRP
  shrunken log2 fold change: 0.00333

## RRIRTRPPRLPRPRPRPLYEPRP
  shrunken log2 fold change: -0.774

## RRIRVRPPRLPRPRPRPWMAPRP
  shrunken log2 fold change: -0.338

## RRIRIRPPRLPRPRPRPQPEPRP
  shrunken log2 fold change: 0.0576

## RRIRIRPPRLPRPRPRPMICPRP
  shrunken log2 fold change: -0.224

## RRIRMRPPRLPRPRPRPAYEPRP
  shrunken log2 fold change: 0.0216

## RRIRLRPPRLPRPRPRPQYLPRP
  shrunken log2 fold change: -0.0559

## RRIRGRPPRLPRPRPRPLFDPRP
  shrunken log2 fold change: 0.548

## RRIRWRPPRLPRPRPRPTDDPRP
  shrunken log2 fold change: -0.0402

## RRIRWRPPRLPRPRPRPFPFPRP
  shrunken log2 fold change: -0.28

## RRIRIRPPRLPRPRPRPDCPPRP
  shrunken log2 fold change: 0.132

## RRIRDRPPRLPRPRPRPKGKPRP
  shrunken log2 fold change: 0.142

## RRIRERPPRLPRPRPRPGCNPRP
  shrunken log2 fold change: -0.0442

## RRIRKRPPRLPRPRPRPCIRPRP
  shrunken log2 fold change: -0.049

## RRIRARPPRLPRPRPRPLAVPRP
  shrunken log2 fold change: 0.716

## RRIRHRPPRLPRPRPRPPKMPRP
  shrunken log2 fold change: -0.0472

## RRIRRRPPRLPRPRPRPKGDPRP
  shrunken log2 fold change: 0.3

## RRIRMRPPRLPRPRPRPGIYPRP
  shrunken log2 fold change: -0.075

## RRIRPRPPRLPRPRPRPESFPRP
  shrunken log2 fold change: -0.216

## RRIRFRPPRLPRPRPRPTVCPRP
  shrunken log2 fold change: -0.0464

## RRIRWRPPRLPRPRPRPALPPRP
  shrunken log2 fold change: 0.374

## RRIRVRPPRLPRPRPRPEEEPRP
  shrunken log2 fold change: 0.0136

## RRIRVRPPRLPRPRPRPCCDPRP
  shrunken log2 fold change: -0.182

## RRIRMRPPRLPRPRPRPPTMPRP
  shrunken log2 fold change: 0.271

## RRIRQRPPRLPRPRPRPTSGPRP
  shrunken log2 fold change: -0.0104

## RRIRYRPPRLPRPRPRPGNSPRP
  shrunken log2 fold change: -0.0689

## RRIRWRPPRLPRPRPRPTHEPRP
  shrunken log2 fold change: 0.219

## RRIRPRPPRLPRPRPRPFDGPRP
  shrunken log2 fold change: -0.214

## RRIRCRPPRLPRPRPRPQEWPRP
  shrunken log2 fold change: 0.00898

## RRIRERPPRLPRPRPRPQFGPRP
  shrunken log2 fold change: 0.222

## RRIRIRPPRLPRPRPRPLDCPRP
  shrunken log2 fold change: -0.267

## RRIRFRPPRLPRPRPRPRFMPRP
  shrunken log2 fold change: -0.117

## RRIRYRPPRLPRPRPRPQYVPRP
  shrunken log2 fold change: -0.0294

## RRIRWRPPRLPRPRPRPRPTPRP
  shrunken log2 fold change: 0.547

## RRIRPRPPRLPRPRPRPEGIPRP
  shrunken log2 fold change: -0.00608

## RRIRTRPPRLPRPRPRPQRSPRP
  shrunken log2 fold change: 0.309

## RRIRYRPPRLPRPRPRPDWHPRP
  shrunken log2 fold change: -0.32

## RRIRTRPPRLPRPRPRPVYCPRP
  shrunken log2 fold change: -0.301

## RRIRRRPPRLPRPRPRPTCSPRP
  shrunken log2 fold change: 0.0172

## RRIRWRPPRLPRPRPRPQQFPRP
  shrunken log2 fold change: -0.262

## RRIRYRPPRLPRPRPRPDFTPRP
  shrunken log2 fold change: -0.0212

## RRIRLRPPRLPRPRPRPWHAPRP
  shrunken log2 fold change: -0.194

## RRIRSRPPRLPRPRPRPNPRPRP
  shrunken log2 fold change: 0.0955

## RRIRSRPPRLPRPRPRPPEGPRP
  shrunken log2 fold change: 0.704

## RRIRCRPPRLPRPRPRPCWAPRP
  shrunken log2 fold change: -0.0725

## RRIRDRPPRLPRPRPRPANQPRP
  shrunken log2 fold change: 0.253

## RRIRSRPPRLPRPRPRPKHFPRP
  shrunken log2 fold change: 0.0852

## RRIRDRPPRLPRPRPRPQYTPRP
  shrunken log2 fold change: -0.31

## RRIRYRPPRLPRPRPRPWRRPRP
  shrunken log2 fold change: -0.104

## RRIRKRPPRLPRPRPRPCAMPRP
  shrunken log2 fold change: 0.367

## RRIRIRPPRLPRPRPRPFECPRP
  shrunken log2 fold change: -0.0837

## RRIRKRPPRLPRPRPRPCCSPRP
  shrunken log2 fold change: -0.189

## RRIRGRPPRLPRPRPRPRDCPRP
  shrunken log2 fold change: 1.11

## RRIRHRPPRLPRPRPRPRHVPRP
  shrunken log2 fold change: -0.324

## RRIRMRPPRLPRPRPRPWSHPRP
  shrunken log2 fold change: -0.0815

## RRIRDRPPRLPRPRPRPGVIPRP
  shrunken log2 fold change: -0.00423

## RRIRCRPPRLPRPRPRPGDMPRP
  shrunken log2 fold change: -0.115

## RRIRNRPPRLPRPRPRPHIGPRP
  shrunken log2 fold change: -0.0161

## RRIRSRPPRLPRPRPRPTTEPRP
  shrunken log2 fold change: 0.014

## RRIRPRPPRLPRPRPRPKATPRP
  shrunken log2 fold change: 0.463

## RRIRSRPPRLPRPRPRPNNCPRP
  shrunken log2 fold change: -0.186

## RRIRARPPRLPRPRPRPYHHPRP
  shrunken log2 fold change: -0.826

## RRIRSRPPRLPRPRPRPANFPRP
  shrunken log2 fold change: 0.0977

## RRIRGRPPRLPRPRPRPLHGPRP
  shrunken log2 fold change: 0.212

## RRIRLRPPRLPRPRPRPCPPPRP
  shrunken log2 fold change: 0.157

## RRIRPRPPRLPRPRPRPGIDPRP
  shrunken log2 fold change: -0.0536

## RRIRFRPPRLPRPRPRPFYGPRP
  shrunken log2 fold change: -0.146

## RRIRKRPPRLPRPRPRPKTVPRP
  shrunken log2 fold change: 0.355

## RRIRSRPPRLPRPRPRPTGTPRP
  shrunken log2 fold change: -0.0039

## RRIRHRPPRLPRPRPRPNSYPRP
  shrunken log2 fold change: 0.118

## RRIRHRPPRLPRPRPRPNGHPRP
  shrunken log2 fold change: -0.0552

## RRIRTRPPRLPRPRPRPAWSPRP
  shrunken log2 fold change: 0.358

## RRIRKRPPRLPRPRPRPGDEPRP
  shrunken log2 fold change: 0.128

## RRIRCRPPRLPRPRPRPKHAPRP
  shrunken log2 fold change: 0.302

## RRIRLRPPRLPRPRPRPVHDPRP
  shrunken log2 fold change: -0.458

## RRIRERPPRLPRPRPRPQNYPRP
  shrunken log2 fold change: -0.409

## RRIRHRPPRLPRPRPRPQKWPRP
  shrunken log2 fold change: -0.875

## RRIRDRPPRLPRPRPRPYFGPRP
  shrunken log2 fold change: -0.551

## RRIRSRPPRLPRPRPRPDSFPRP
  shrunken log2 fold change: -0.0457

## RRIRWRPPRLPRPRPRPRILPRP
  shrunken log2 fold change: 0.188
